Measured values reported in paper PMC2174254.
Read-outs that look alike come from different tables or passages of the source. Blank lines part the entries; values can stand above or below the substance they belong to.

How the values were obtained:
Assay in all cases: cross-linking
[1] = molecular target: PDI deletion mutant Δ222–302 (S. cerevisiae) (UniProt P17967)
[2] = molecular target: PDI deletion mutant Δ222–302 (S. cerevisiae) (UniProt P17967); remark: listed apart in the source
[3] = molecular target: PDI deletion mutant Δ252–277 (S. cerevisiae) (UniProt P17967)
[4] = molecular target: BiP, heavy chain binding protein (S. cerevisiae (endogenous in yeast microsomes)) (UniProt P16474)
[5] = molecular target: Protein disulfide isomerase (PDI), wild type, S. cerevisiae (S. cerevisiae) (UniProt P17967)

Sequence of BiP, heavy chain binding protein (S. cerevisiae (endogenous in yeast microsomes)) (P16474 43-682): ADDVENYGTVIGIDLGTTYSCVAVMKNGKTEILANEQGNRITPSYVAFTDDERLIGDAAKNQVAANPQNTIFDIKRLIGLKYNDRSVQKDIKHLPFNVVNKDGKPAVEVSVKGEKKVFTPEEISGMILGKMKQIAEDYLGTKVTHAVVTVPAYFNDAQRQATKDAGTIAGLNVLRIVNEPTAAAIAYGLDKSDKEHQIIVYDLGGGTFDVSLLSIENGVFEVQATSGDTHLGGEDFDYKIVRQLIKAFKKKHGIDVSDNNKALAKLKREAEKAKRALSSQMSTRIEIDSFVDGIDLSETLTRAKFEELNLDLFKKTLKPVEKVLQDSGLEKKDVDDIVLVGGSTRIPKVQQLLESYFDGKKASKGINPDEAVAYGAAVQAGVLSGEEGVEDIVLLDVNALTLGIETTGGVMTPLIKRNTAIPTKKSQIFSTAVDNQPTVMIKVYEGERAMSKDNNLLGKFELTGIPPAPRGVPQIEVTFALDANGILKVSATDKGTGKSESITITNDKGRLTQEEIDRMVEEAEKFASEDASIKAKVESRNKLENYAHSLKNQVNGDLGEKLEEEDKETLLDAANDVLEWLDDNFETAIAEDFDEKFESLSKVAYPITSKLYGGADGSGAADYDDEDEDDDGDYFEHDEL

- peptide binding, percent of wild-type (% of wild-type) [1]: 13
- peptide binding, percent of wild-type (% of wild-type) [2]: 14
- peptide binding, percent of wild-type (% of wild-type) [3]: 38
Substance: N-benzoyl-NYT-amide, synthetic glycosylation acceptor peptide

- percent of the Δgpαf in the sample cross-linked to BiP [4]: 10%
- Δgpαf bound to BiP in sec61-32 microsomes relative to wild-type microsomes [4]: 2.1 fold
- Δgpαf bound to BiP in sec61-41 microsomes relative to wild-type microsomes [4]: 1.3 fold
- fold lower affinity than wild-type PDI [2]: 5 fold
- intensity of the cross-linking product, percent of wild-type (% of wild-type) [2]: 43
- fold lower affinity than wild-type PDI [3]: 9 fold
- intensity of the cross-linking product, percent of wild-type (% of wild-type) [3]: 24
- percent of the Δgpαf in the sample cross-linked to PDI [5]: 7%
- stoichiometry N [5]: 1
Substance: Δgpαf, mutant glycosylation site-free pro-α factor (natural protein)

- fold lower intensity of the cross-linking product than that with Δgpαf [5]: 8 fold
Substance: gpαf, glycopro-α factor (wild type) (natural protein)
